Values of other authors as cited in US20040063697A1, “Compositions of cyclooxygenase-2 selective inhibitors and thrombolytic agents for the treatment or prevention of a vaso-occlusive event” (priority 2002, published 2004).

How the values were obtained:
[1] = not given; remark: listed apart in the source
[2] = target: plasminogen (Homo sapiens, UniProt P00747)
plasminogen, sequence (P00747 20-810 limits assumed): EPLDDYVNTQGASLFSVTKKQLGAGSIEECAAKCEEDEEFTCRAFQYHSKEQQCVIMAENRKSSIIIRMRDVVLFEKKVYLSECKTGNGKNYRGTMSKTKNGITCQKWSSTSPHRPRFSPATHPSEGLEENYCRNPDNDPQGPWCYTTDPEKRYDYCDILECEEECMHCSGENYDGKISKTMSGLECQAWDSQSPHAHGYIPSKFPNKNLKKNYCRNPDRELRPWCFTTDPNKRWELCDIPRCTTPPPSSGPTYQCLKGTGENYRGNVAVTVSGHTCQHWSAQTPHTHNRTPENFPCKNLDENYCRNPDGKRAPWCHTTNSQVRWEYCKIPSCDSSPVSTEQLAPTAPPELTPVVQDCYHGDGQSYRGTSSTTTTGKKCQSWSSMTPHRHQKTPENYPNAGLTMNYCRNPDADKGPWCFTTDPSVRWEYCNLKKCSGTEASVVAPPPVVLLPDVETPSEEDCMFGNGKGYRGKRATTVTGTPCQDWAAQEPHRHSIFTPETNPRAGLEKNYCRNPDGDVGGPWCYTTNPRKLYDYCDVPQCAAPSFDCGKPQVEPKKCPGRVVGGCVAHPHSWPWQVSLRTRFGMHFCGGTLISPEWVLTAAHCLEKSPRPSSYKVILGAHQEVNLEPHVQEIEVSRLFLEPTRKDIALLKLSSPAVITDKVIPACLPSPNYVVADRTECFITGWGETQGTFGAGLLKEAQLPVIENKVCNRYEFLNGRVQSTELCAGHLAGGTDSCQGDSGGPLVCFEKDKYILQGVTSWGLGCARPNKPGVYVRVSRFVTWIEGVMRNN

B1: Tenecteplase: human derivative of t-PA (protein, UniProt P00750 36-562, looked up, variant T103N N117Q K296A H297A R298A R299A)
Tissue-type plasminogen …: SYQVICRDEKTQMIYQQHQSWLRPVLRSNRVEYCWCNSGRAQCHSVPVKSCSEPRCFNGGTCQQALYFSDFVCQCPEGFAGKCCEIDTRATCYEDQGISYRGNWSTAESGAECTNWQSSALAQKPYSGRRPDAIRLGLGNHNYCRNPDRDSKPWCYVFKAGKYSSEFCSTPACSEGNSDCYFGNGSAYRGTHSLTESGASCLPWNSMILIGKVYTAQNPSAQALGLGKHNYCRNPDGDAKPWCHVLKNRRLTWEYCDVPSCSTCGLRQYSQPQFRIKGGLFADIASHPWQAAIFAAAAASPGERFLCGGILISSCWILSAAHCFQERFPPHHLTVILGRTYRVVPGEEEQKFEVEKYIVHKEFDDDTYDNDIALLQLKSDSSRCAQESSVVRTVCLPPADLQLPDWTECELSGYGKHEALSPFYSERLKEAHVRLYPSSRCTSQHLLNRTVTDNMLCAGDTRSGGPQANLHDACQGDSGGPLVCLNDGRMTLVGIISWGLGCGQKDVPGVYTKVTNYLDWIRDNMRP
In the case of B1, the Antigenicity (in vivo) is listed as “No”, the immune response (when administered to a human) is listed as “no immune response is elicited” and the Elimination ([1]; in vivo) is listed as “Hepatic”. The “Half-Life” value ([1]; in vivo) was 20 to 25 min, the “plasma clearance time and half-life” value ([1]; in words) was “lower plasma clearance time and a longer half-life” and the “Method of Plasminogen Activation” value [2] was “Direct”.
